target: human complement C3 (human); assay: MST
Sequence (chain, as listed by the source, chain 1 of 2): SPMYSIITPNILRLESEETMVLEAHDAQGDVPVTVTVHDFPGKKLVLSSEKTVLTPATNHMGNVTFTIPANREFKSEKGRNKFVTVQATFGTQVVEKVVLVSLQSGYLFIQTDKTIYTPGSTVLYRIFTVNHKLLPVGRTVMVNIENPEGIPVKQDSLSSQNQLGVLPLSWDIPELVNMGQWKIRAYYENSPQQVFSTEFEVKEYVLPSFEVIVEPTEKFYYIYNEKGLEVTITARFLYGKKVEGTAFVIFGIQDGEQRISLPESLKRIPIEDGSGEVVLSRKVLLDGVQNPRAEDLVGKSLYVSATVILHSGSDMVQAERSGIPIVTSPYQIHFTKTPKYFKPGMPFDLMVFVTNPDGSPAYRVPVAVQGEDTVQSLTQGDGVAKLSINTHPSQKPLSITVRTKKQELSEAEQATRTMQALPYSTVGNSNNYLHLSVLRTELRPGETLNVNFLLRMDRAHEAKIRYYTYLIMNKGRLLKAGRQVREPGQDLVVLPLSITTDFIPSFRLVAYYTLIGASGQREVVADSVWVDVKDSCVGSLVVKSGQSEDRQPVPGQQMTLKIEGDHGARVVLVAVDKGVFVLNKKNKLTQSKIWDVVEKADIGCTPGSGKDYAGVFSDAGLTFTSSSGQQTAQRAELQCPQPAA
Sequence (chain, as listed by the source, chain 2 of 2): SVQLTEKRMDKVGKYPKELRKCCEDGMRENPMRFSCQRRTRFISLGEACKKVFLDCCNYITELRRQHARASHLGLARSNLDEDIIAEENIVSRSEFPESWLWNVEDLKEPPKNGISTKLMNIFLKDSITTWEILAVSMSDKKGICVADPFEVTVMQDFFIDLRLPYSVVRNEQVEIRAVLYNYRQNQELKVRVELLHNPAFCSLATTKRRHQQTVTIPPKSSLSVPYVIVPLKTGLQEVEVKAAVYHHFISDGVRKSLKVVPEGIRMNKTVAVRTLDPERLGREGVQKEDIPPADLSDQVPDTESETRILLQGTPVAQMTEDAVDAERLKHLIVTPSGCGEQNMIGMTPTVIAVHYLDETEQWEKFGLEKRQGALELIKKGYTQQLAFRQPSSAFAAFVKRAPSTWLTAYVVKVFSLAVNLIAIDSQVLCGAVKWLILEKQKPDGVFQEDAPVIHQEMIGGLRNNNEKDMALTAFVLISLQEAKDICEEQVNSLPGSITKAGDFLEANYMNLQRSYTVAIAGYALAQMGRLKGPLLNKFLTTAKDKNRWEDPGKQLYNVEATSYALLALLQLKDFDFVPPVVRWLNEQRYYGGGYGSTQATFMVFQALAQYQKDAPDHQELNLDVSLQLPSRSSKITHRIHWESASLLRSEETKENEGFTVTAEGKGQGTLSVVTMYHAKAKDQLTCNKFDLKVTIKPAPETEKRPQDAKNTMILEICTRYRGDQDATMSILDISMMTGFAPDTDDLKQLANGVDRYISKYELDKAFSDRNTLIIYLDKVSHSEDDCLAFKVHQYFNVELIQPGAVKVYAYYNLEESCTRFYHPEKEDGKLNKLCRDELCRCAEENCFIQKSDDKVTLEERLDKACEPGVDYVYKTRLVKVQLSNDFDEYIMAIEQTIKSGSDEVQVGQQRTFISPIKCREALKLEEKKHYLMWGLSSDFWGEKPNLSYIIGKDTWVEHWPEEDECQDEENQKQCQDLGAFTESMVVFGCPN

Binder	Kd [µM]
YhcD (natural protein, NHS ester fluorescent dye (in the MST assay only)) DGIEIAAVDFDRETLKSLGVDPNISHYFSRSARFLPGEYSLIVSVNGEKKGNIATRFDENGDICLDQAFLQQAGLKIPSEEKNGCYDYILSYPGTTITPLPNQEALDIIVSPQAIIPIGLDLTNAATGGTAALLNYSLMSSRAEFSNGSSDYSQAALEGGININDWMLRSHQFLTQTNGTFSNQNSSTYLQRTFTDLKTLMRAGEVNLNNSVLEGASIYGIEIAPDNALQTSGSGVQVTGIANTSQARVEIRQQGVLIHSILVPAGAFTIPDVPVRNGNSDLNVTVVETDGSSHNYIVPSTLFNQHVESFQGYRFAIGRVDDDYDESPWVISASSGWNLTRWSAMNGGVIVAENYQAASIRSSLVPLPDLTVSSQISTSQDTKDSLQGQKYRLDANYNLPFSLGLTTSLTRSDRHYRELSEAIDDDYTDPTKSTYALGLNWSNSILGGFNISGYKTYSYDGDNDSSNLNINWNKAFKHATVSVNWQHQLSASENNEDDGDLFYVNISIPFGRSNTATLYTRHDDHKTHYGTGVMGVVSDEMSYYVNAERDHDERETSLNGSISSNLHYTQVSLAAGASGSDSRTYNGTMSGGIAVHDQGVTFSPWTINDTFAIAKMDNNIAGVRITSQAGPVWTDFRGNAVIPSIQPWRTSGVEIDTASLPKNVDIGNGTKMIKQGRGAVGKVGFSAITQRRALLNITLSDGKKLPRGVAIEDSEGNYLTTSVDDGVVFLNNIKPDMVLDIKDEQQSCRIHLTFPEDAPKDVFYETATGECQ	8.9
HtrE (natural protein, NHS ester fluorescent dye (in the MST assay only)) AELVEYDHTFLMGQNASNIDLSRYSEGNPAIPGVYDVSVYVNDQPIINQSITFVAIEGKKNAQACITLKNLLQFHINSPDINNEKAVLLARDETLGNCLNLTEIIPQASVRYDVNDQRLDIDVPQAWVMKNYQNYVDPSLWENGINAAMLSYNLNGYHSETPGRKNESIYAAFNGGMNLGAWRLRASGNYNWMTDSGSNYDFKNRYVQRDIASLRSQLILGESYTTGETFDSVSIRGIRLYSDSRMLPPTLASFAPIIHGVANTNAKVTITQGGYKIYETTVPPGAFVIDDLSPSGYGSDLIVTIEESDGSKRTFSQPFSSVVQMLRPGVGRWDISGGQVLKDDIQDEPNLFQASYYYGLNNYLTGYTGIQITDNNYTAGLLGLGLNTSVGAFSFDVTHSNVRIPDDKTYQGQSYRVSWNKLFEETSTSLNIAAYRYSTQNYLGLNDALTLIDEVKHPEQDLEPKSMRNYSRMKNQVTVSINQPLKFEKKDYGSFYLSGSWSDYWASGQNRSNYSIGYSNSTSWGSYSVSAQRSWNEDGDTDDSVYLSFTIPIEKLLGTEQRTSGFQSIDTQISSDFKGNNQLNVSSSGYSDNARVSYSVNTGYTMNKASKDLSYVGGYASYESPWGTLAGSISANSDNSRQVSLSTDGGFVLHSGGLTFSNDSFSDSDTLAVVQAPGAQGARINYGNSTIDRWGYGVTSALSPYHENRIALDINDLENDVELKSTSAVAVPRQGSVVFADFETVQGQSAIMNITRSDGKNIPFAADIYDEQGNVIGNVGQGGQAFVRGIEQQGNISIKWLEQSKPVSCLAHYQQSPEAEKIAQSIILNGIRCQIQ	5.4
NfrA (natural protein, NHS ester fluorescent dye (in the MST assay only)) DNIGTSAEELGLSDYRHFVIYPRLDKALKAQKNNDEATAIREFEYIHQQVPDNIPLTLYLAEAYRHFGHDDRARLLLEDQLKRHPGDARLERSLAAIPVEVKSVTTVEELLAQQKACDAAPTLRCRSEVGQNALRLAQLPVARAQLNDATFAASPEGKTLRTDLLQRAIYLKQWSQADTLYNEARQQNTLSAAERRQWFDVLLAGQLDDRILALQSQGIFTDPQSYITYATALAYRGEKARLQHYLIENKPLFTTDAQEKSWLYLLSKYSANPVQALANYTVQFADNRQYVVGATLPVLLKEGQYDAAQKLLATLPANEMLEERYAVSVATRNKAEALRLARLLYQQEPANLTRLDQLTWQLMQNEQSREAADLLLQRYPFQGDARVSQTLMARLASLLESHPYLATPAKVAILSKPLPLAEQRQWQSQLPGIADNCPAIVRLLGDMSPSYDAAAWNRLAKCYRDTLPGVALYAWLQAEQRQPSAWQHRAVAYQAYQVEDYATALAAWQKISLHDMSNEDLLAAANTAQAAGNGAARDRWLQQAEKRGLGSNALYWWLHAQRYIPGQPELALNDLTRSINIAPSANAYVARATIYRQRHNVPAAVSDLRAALELEPNNSNTQAALGYALWDSGDIAQSREMLEPAHKGLPDDPALIRQLAYVNQRLDDMPATQHYARLVIDDIDNQALITPLTPEQNQQRFNFRRLHEEVGRRWTFSFDSSIGLRSGAMSTANNNVGGAAPGKSYRSYGQLEAEYRIGRNMLLEGDLLSVYSRVFADTGENGVMMPVKNPMSGTGLRWKPLRDQIFFIAVEQQLPLNGQNGASDTMLRASASFFNGGKYSDEWHPNGSGWFAQNLYLDAAQYIRQDIQAWTADYRVSWHQKVANGQTIEPYAHVQDNGYRDKGTQGAQLGGVGVRWNIWTGETHYDAWPHKVSLGVEYQHTFKAINQRNGERNNAFLTIGVHW	1.3

Source: PMC6658569 (2019)
